Literature values in paper doi:10.1101/2021.10.04.463074.

Target: Asp85 (UniProt position 98, WARYADWLFTT)
Conditions: resting (ground) state of bR, protonated Schiff base, all-trans retinal

In the case of “Bacteriorhodopsin (bR) (Halobacterium salinarum (named Halobacterium halobium only in titles of cited references))”, the pKa is listed as 2 to 3.
